Patent US20180371066A1 (C2N DIAGNOSTICS, published 2018)

Assays:
[1] = target: T1, recombinant human Tau-412 protein (human, UniProt P10636-7 1-412); assay: SPR Biacore T200, Protein A capture, mean of the VH1/VK2 runs
T1 construct: Analyte of the SPR study; also called human tau (1N4R, 412 amino acids)
Method: (§1) Kinetic data was obtained at a flow rate of 40 μL/min to minimize any potential mass transfer effects. Two repeats of the blank (no antigen) and the 2.5 nM concentration of the analyte were programmed into the kinetic run in order to check the stability of both the surface and analyte over the kinetic cycles. For the initial kinetic runs, 2-fold dilutions of Tau-412 from 40 nM to 0.156 nM were run. For kinetic analysis and on subsequent runs, an analyte range of 20 nM to 0.625 nM was selected. This range covered multiple analyte concentrations both above and below the reported KD.
(§2) The association phase was monitored for 500 seconds to allow some of the higher concentrations of analyte to reach steady state. In order to observe a sufficient signal decrease (>10%) during the dissociation phase of the kinetic cycle, dissociation was measured for 1200 seconds. As discussed in Section 5, the Fcs were allowed to stabilize for 600 seconds after each regeneration step. The signal from the reference channel Fc1 was subtracted from that of Fc2, Fc3 and Fc4.
(§3) The kinetic parameters for the interaction of Tau-412 with the 7 mAbs as measured using the Protein A capture system on the Biacore T200 are shown in Table F-2. To correct for differences in the capture level of the antibody between each binding cycle, a local Rₘₐₓ parameter was used in the 1-to-1 binding model. Kinetic analysis was performed in three independent runs using fresh preparations of Tau-412 and antibody. Run 1 and runs 2+3 used different vials of the antigen Tau-412; therefore the reported errors associated with the mean response probably represent variation in preparation of the analyte and differences in assay set-up and run. From run 1 to runs 2+3, the amount of antibody injected was adjusted to try to get closer to the target 300 RU capture levels.

[2] = target: T1, recombinant human Tau-412 protein; assay: SPR Biacore T200, mAb captured on Protein A, Tau-412 analyte, 1-to-1 model, chip A11/3
Method: as §1, §2, §3

rhesus monkey tau = target: T2, rhesus monkey tau (rhesus monkey, UniProt P57786 2-60); assay: direct ELISA on 96-well plates coated with tau at varied concentration; OD 650nm
T2 construct: also called rhesus tau
T2 sequence: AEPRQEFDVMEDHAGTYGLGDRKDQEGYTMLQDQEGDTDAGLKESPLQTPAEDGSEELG
Method: FIG. 10 illustrates the binding results for different anti human tau antibodies to either human or rhesus monkey tau. Murine anti human tau antibodies HJ8.5 and HJ8.7 alongside humanized variant VH1/VK2 (also referred to as C₂N-8E12) were tested. […] In order to determine whether these amino acid difference between the two species of tau, impacts the ability of antibodies HJ8.5/C₂N-8E12 to bind the following experiment was performed. Binding of C₂N-8E12, HJ8.5 (murine precursor of C₂N-8E12), and HJ8.7 (murine anti-human tau antibody that binds to an epitope of tau where the human and rhesus amino acid sequence is 100% conserved) to human and rhesus tau by coating 96 well ELISA plates with either human or rhesus tau at various concentrations was measured. […] As expected, HJ8.7 binds to both human and rhesus tau.

human tau = target: T3, human tau (human, UniProt P10636 2-60); assay: competition ELISA on plate-coated human tau against biotinylated HJ8.5; IC50 normalised to chimeric HJ8.5; column External
T3 construct: also called soluble human tau; human tau protein
T3 sequence (P10636 2-60 limits assumed): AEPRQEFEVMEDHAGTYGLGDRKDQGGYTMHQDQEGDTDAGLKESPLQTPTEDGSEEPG

T1 sequence (P10636 other isoform, or with tags, fused parts or gaps limits assumed): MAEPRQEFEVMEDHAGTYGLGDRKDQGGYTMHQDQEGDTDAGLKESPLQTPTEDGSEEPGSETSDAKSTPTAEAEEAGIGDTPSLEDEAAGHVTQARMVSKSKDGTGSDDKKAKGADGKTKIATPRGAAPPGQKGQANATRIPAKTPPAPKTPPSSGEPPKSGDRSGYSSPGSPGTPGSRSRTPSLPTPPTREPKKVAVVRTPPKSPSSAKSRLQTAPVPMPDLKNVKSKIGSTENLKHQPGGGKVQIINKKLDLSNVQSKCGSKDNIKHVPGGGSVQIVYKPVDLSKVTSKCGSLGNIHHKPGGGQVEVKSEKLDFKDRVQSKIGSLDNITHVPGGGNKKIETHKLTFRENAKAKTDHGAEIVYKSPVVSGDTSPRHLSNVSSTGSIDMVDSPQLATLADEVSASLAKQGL

B1: VH1/VK2 humanized anti-tau antibody (C2N-8E12) (antibody, human IgG4 S228P, kappa, V domains shown)
VH: EVKVVESGGGLVQPGGSMKLSCVVSGFTFSNYWVNWVRQAPGKGLEWVAQIRLKSDNYATHYEESVKGRFTISRDDSKSSVYLQMNNLRAEDSGIYYCTNWEDYWGQGTTVTVSS
VL: DIVLTQSPDSLAVSLGERATISCRASQSVSTSRYSYIHWYQQKPGQPPKLLIKYASNLESGVPSRFSGSGSGTDFTLNIHPLEPEDFATYYCHHSWEIPLTFGQGTKLEIKR
notes: Humanized recombinant IgG4 with S241P hinge mutation, human kappa light chain; also called C2N-8EI2
[1]
  Kd: 2.06 nM
  koff: 0.000621 s⁻¹
  kon: 302000 M⁻¹ s⁻¹
[2]
  Kd: 1.95 nM
  koff: 0.000632 s⁻¹
  kon: 325000 M⁻¹ s⁻¹
Rhesus monkey tau
  binding result: no binding
Human tau
  IC50 (Relative to Chimera): 0.78 relative to Chimera
